Test: soluble on expression in E. coli; label from the status in PepcDB or PDB records

Soluble on expression in E. coli, not soluble:
MGSDKIHHHHHHMFVPAPDATITNCRNCPLRRKPLFLPFSDSELSFMEQFKVGELVVAPGVTLLEEGQGSAHLFTVLSGLGIRSTMLENGRRQVINFLFPGDFIGLQAGLAGEMRHSVESTTTMVLCVFNRADLWDLFREEPERAYDLTWIAAVEEHFLGETIASLGQRDATERLAWALLRIHERLSAIGLAERGRVPMPWRQQDLADALGLSLVHTNKTIRRLRETGHALWEGGTLFVDRERLATLALADPDRPRRRPLI, MGSDKIHHHHHHMGDDILSQEEVDALLRGVSGEDEDDDGGQDAQGVRGYDIGRQERIVRGRMPTLEIINERFARNLRIGLFNFLRRNAEISVGPVRVQKYSEFIRNLVVPTNLNLVHVKPLRGTGLLIFDPDLVFLIVDNLFGSDGRYHVRVEGRDFTPTEQRIIHRLLEVVFTECQKAWEPVYPIEFVYLRSEMNTQFANIATPTEVVVAMTFHIELGAGGGDFHICLPYSMVEPIRDLLSSTMQADRTEVDNRWVNLMTHQVQAAEVELVASLAHAKVTLGQILNLKNGDVVMIEIPERVEADVSGIPVFEASYGTVQGRYALKVEKILAGTNEFLESPGEHEQ, MGSDKIHHHHHHMGEAIEVAEGALWMRLPLPMKLDHVNVYAFDEGDSWTVVDTGMSSNKTRRIWEQLMAGPLGGKPVRRVVVTHHHPDHIGNAGWFQSEHGAELVTTRTAWLFARMLTLDVQESWPEETLAYYRSAGMDPEVYDTRKADRPFNFADTVYPMPLGFTRVQQGDVFRMGGRDWDIHMGNGHAPEHATLWSRDDNLVLTGDQVLSSISPNIGVYATEPEADPLAEWLEACERLAALARPEHLALGGHKLPFTRLPLRMRQLIDNHHGALERLMEFLETPKSAAECFPTLFKRTIGPGEYGLALVEAVAHVNHLYRTGQVTRTRRSDEAWVYQRR, MGSDKIHHHHHHMGEYLTLPMEVYSGILVTHEGVFHGDLIVEEMAFEESRVEKDDFVISPTFFNAHTHLGDAALREAPRLDLVSIVGPGGYKHRMLSQIDSKTLRQEVELEVRISRDAGTSHFLDFREGGKAGLEIVKGIDGVLPLARPTSVEEAEEVEAFGFAYSSARDHDLKLMEEVREIARRRKMLFAIHAGEKDCADVDAALALEPDFVVHMNSCPEKIREFVEAEIPIVSCIRSNAFFGLLNKKSYELLSEYEKWMLGTDNAMISTASMLDEMHFAAYLIGKEKAILRAATASYAVFGFRHGYVVFNRNCSFRRTSDPLLTLVRRAGVKDIERVLIL, MGSDKIHHHHHHMGGKWMRWMAPAPPASNVPKCSCHRLLGKEPPNDSKDCRPGSLTGRALFSDVPRGMAKDVFQVHCVSATGRRVINKKIKRAKLLAFLETLPRCVVGMEACGSAHHWGGELRKLGHDVRLMPAAYVKLYVKRGKTDAADAEAICEAVRRQSMRFVEIESEDQQAVLAIHSARDLVVRQRTQVVNMIRSILREFGHILPTGIEAVSKFAREHGTEDQLDMPEIADGILGVMCHQLNGLNARVDGLTKLIEQHAWLDADARRLMRMPGIGPITASAIVATIGDAKQFETGRDLATWLGLTPLNKSSGGKERLGRIIKKGDRYIRKLLIIGMTSRSLMAKNKPEKADTWTAKLPDEQPFRLATVAMANKSARIIWALLTKREEYRQPIV, MGSDKIHHHHHHMGHQEFMSQEEVDALLKGVTGETDTVDEQRDLSSVRPYNIATQERIVRGRMPGLEIINDRFARLLRIGIFNFMRRTAEISVSQVKVQKYSEFTRNLPIPTNLNLVHVKPLRGTSLFVFDPNLVFFVVDNLFGGDGRFHTRVEGRDFTATEQRIIGKLLNLVFEHYATAWKSVRPLQFEFVRSEMHTQFANVATPNEIVIVTQFSIEFGPTGGTLHICMPYSMIEPIRDVLSSPIQGEALEVDRRWVRVLSQQVQSAEVELSANLAEIPSTFEKILNLRAGDVLPLEIEDTITAKVDGVPVMECGYGIFNGQYALRVQKMISASDTMKEGGYE, MGSDKIHHHHHHMGIGIIIASHGKFAEGIHQSGSMIFGEQEKVQVVTFMPNEGPDDLYGHFNNAIAQFDADDEVLVLADLWSGSPFNQASRVMGENPERKMAIITGLNLPMLIQAYTERMMDANAGVEQVAANIIKESKEGIKALPEELNPVVEATPVAGVPADVPAEVKQSGSIPEGTVIGDGKLKINLARIDTRLLHGQVATAWTPASKANRIIVASDEVSKDELRKQLIKQAAPGGVKANVVPISKLIEVAKDPRFGNTRALILFETVQDALRAIEGGVEIPELNVGSMAHSTGKTMVNNVLSMDKDDVAAFEKLRDLGVSFDVRKVPNDAKKNLFDLINKANVK, MGSDKIHHHHHHMGIKYSFTRELRTELIDVDKVFKENLLPWWDDIYNYIKMLNEDFTWNQLPPLVYIVYRYLGLDRSISISMTNIFKTLYLANSIHGMVKDDKEGQKYDQDLQFAILIGDYMFGRMLKLLVEAGADKLVGLFAVMMAEINEGQVMERKLQAAHKDVLQKTRGSIYATAFETAGHLSGMKGILLENCRQLGLNLGMSIELMNCDISREEVLVYIHEAERNYKIINQYQRMVNSNLEAAINEVHSLLCNIENVAVV, MGSDKIHHHHHHMGILSDKDIAYLKDLFGKELKRKVKIVFFKTEDKTRCQYCEITEQVLEELVSVDPKLELEIHDFDSDKEAVEKYQVEMVPATILLPEDGKDYGIRFYGVPSGHEFGTLIQDIITVSEGKPQLSEESIQKLQSLEEPIRISVFVTPTCPYCPRAVLMAHNMAMASDKIIGEMIEANEYWELSEKFGVSSVPHIVVNRDPSKFFVGAYPEKEFINEVLRLAKG, MGSDKIHHHHHHMGIYFNPGNGSFTKDKNSQLYIDKTGLIEYLNRVICTNANCISVSHARRFGKSHAAGMIDAYYSRGCDSSELFADSEIAAKDSYSAHLNKYNVIHIDVSSFWDAYKDNVIEKIQEYIYDELKQVYGDQIDYTKMISAVLMSVYNISDIPFVIIIDEWDCVIRNGGNKTLVHSYLQFLHLLFKSEESKTFLALAYITGILPIKKIKDESALNNFREFTMLKSKQLTRYFGFTEDEVKKLCITYDMDFESIKAWYNGYLIDGLHMYNPNSVVQAMLDHDYDFYWKNTSSFESINTFITMNYAGLKDDVLAMLSGDKIRVNVNTFQNDLTTVASKDDALTALIHLGYLAYDANRKMAYIPNYEVAAAYDLALQTGSWSEVANSISKCDELLDATLNEDADKVAELVEIAHETYTSVLKYNDENSLSCALTMAYFTANAYYNIVREFPAGKGFADLVFIPRANACGRPAIVIELKYNASADSAISQIKNRRYHGALSGYSNQILLVGINYSNTSDNKKHTCIIESINNLD, MGSDKIHHHHHHMGKAMDLPAETREAANNVIKMQRDADWQNDFKKNSDDGIKTQSLYNIRLIMEHDEMLKGLVAFDEFSEQIVKTPQAENSLFKKGFWNDGDDTLLRSYIEDHYNLLFSKENITDAVVTEARRKTINPVKARIEAVEWDGQPRAERYFINYLGAEDNHYTRTITKKWLTGLIARAYVPGVKFEIVPILEGSQGLGKSTAGKNLYPDKFNDSLKGMGKQKDDYQQLQGSWIIEVAELSAMKKTDIEGIKNFISAQSDTYRNSYGRYALPHPRKCVFIGTTNQTDYLKDATGERRFYPIKCGVNKAKLDVWHPDENYMLQVLAEAAYWFKNGEPLYLDQATMKEAKAYQMAAEAVDPMRDAIEAFLAMEVPTDWENMSTSLKQSYVSDYGHHSKWLQDQVSNERKLLNQTTTREIMEVVFHKTVDRYLTGRTNSEAKRIKLLMDNMDGWKSQRIRMNGQRLHGYMREV, MGSDKIHHHHHHMGLAFEHVTLGQRVLFGTGTAAPSLASEVARLGARRVMVITSNRARETAYRIAADVEVALWHHDVAMHVPIETARKARAAAGEHGIDLLVCVGGGSTTGLAKAIAMTLRLPIIAVPTTYAGSEATNVWGLTEASRKTTGVDDAVLPVTVIYDAALTLALPVAMSVASGLNGIAHCIDSMWAPGADPINAALGAEGIRALSHGLPLIAEDPAGTEGREQALYGAYLSAVAFASAGSGLHHKICHVLGGAFNLPHAQVHATVLPYVLAFNAPYASDSEARIAAAFGTADALTGLQELRNRLDAPKALSDYGLTADGAAEAAAVVQPTVPASNPRPVTTENLTRLLQAALSGEDPRCLLEH

From the DeepSol protein solubility set
